Assay results published in the nanobody polyreactivity screen of Harvey et al. (2022).

Assay: yeast display, Sf9 membrane polyspecificity reagent, FACS + sequencing; frameworks hold sequencing errors
Summary of the method: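 Nanobodies from a synthetic yeast display library (Saccharomyces cerevisiae BJ5465), induced 36–48 hours with galactose, were stained 1 hour at 4 °C with 10% biotinylated, detergent-solubilized Sf9 membrane reagent, enriched on streptavidin microbeads, then FACS-sorted. Anti-HA (expression) and streptavidin (reagent binding) fluorescence set low and high (top ~1%) gates. Polyreactivity labels come from the gate of origin. Genes were colony-PCR amplified, MiSeq 2 × 250 sequenced and filtered by CDR length.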

Sequence: QVQLVESGGGLVQAGGSLRLSCGASGFISKFYAMGWYRQAPGKERELVASISRDGSTSYADSVKGRFTMSRDNAKNSVYLQMNSLKPEDTAVYYCAAPSYRTRYYYWGQGTQVTVSS
- polyreactivity (PSR sort gate): high polyreactivity

Sequence: QVQLVESGGGLVQAGGSLRLSCAASGFTFYKNTMGWYRQAPGKERELVAAISGSGGRTYYADSVKGRFTISRDNAKNTVYLQMTSLKPEDTAVYYCNAAARYRWQYVYSLYEYGHWGQGTQVTVSS
- polyreactivity (PSR sort gate): high polyreactivity

Sequence: QVQLAESGGGLVQAGGSLRLSCAASGRTFSQYGMGWYRQAPGKERELVARIRRSGGSTYYADSVKGRFTISRDNAKNTVYLQMNSLKPEDTAVYYCAARYYWFGQYQYNYWGQGTQVTVSS
- polyreactivity (PSR sort gate): high polyreactivity

Sequence: QVQLVESGGGLVQAGGSLRLRCAASGRIFRIYPMGWYRQAPGKERELVARITYSGGSTYYADSVKGRFTISRDNAKNTVYLQMNSLKPEDTAVYYCAADWLGYQYGYWGQGTQVTVSS
- polyreactivity (PSR sort gate): low polyreactivity

Sequence: QDQLVESGGGLVQAGGSLRLSCAASGFIFYYNAMAWYRHAPGKERELVAAISYVGGSTYYADSVKGRFTISRDNAKNTVYLQLNSLKPEDTAFYYCAARVYWWIASLAGNYWGQGTQVSVSS
- polyreactivity (PSR sort gate): low polyreactivity

Sequence: QVQLVESGGGLVQAGGSLRLSCAASGSTFNRNAMGWYRQAPGKERELVAAISWRGDSTSYADSVKGRFTISRDNAKNTVYLQMNSLKPEDTAVSYCAADYYYGQGQPDEDNYWGQGTQVTVSS
- polyreactivity (PSR sort gate): low polyreactivity

Sequence: QVQLVESGGGLVQAGGSLRLSCAASGRIFGRYAMGWYRQAPGKERELVAAITSGGRTSYADSVKGRFTISRDNAKNTVYLQMNSLKPEDTAVYYWNVVSRNSIRFDYWGQGTQVTVSS
- polyreactivity (PSR sort gate): high polyreactivity

Sequence: QVQLVESGGGLVQARGSLRLSCAASGGIFYRNAMGWYRQAPGKERELVAAITQSGGRTYYADSVKGRFTISRDNAKNTVYLQMNSLKPEDTADYYCAKSRYTPTGSLQLNYWGQGTQVTVSS
- polyreactivity (PSR sort gate): high polyreactivity

Sequence: QVQLVESGGGLVQAGGSLRLSCAASGSIFGYYAMGWSRQAPGKERELVAAISKSGGRTYYADSVKGRFTISRDNAKNTVYLQMNSLKPEDTAVYYCAAVLWYDIYYGGDYWGQGTQVTVSS
- polyreactivity (PSR sort gate): high polyreactivity

Sequence: QVQLVESGGGLVQAGGRIRLSCAASGIIFYPYAMGWYRQAPGKERELVAGISSSGGSTYYADSVKGRFTISRDNAKNTVYLQMNSLKPEDTAVYYCAAVRISRTPRGLYEYWGQGTQVTVSS
- polyreactivity (PSR sort gate): high polyreactivity

Sequence: QVQLVESGGGLVQAGGSLRLSCAPSGSIFEINAMGWYRQAPGKERELVAAITGSGGSTHYADSVKGRFTISRDNAKKTVYLEMNSLKPEDTAVYYCAAVQRYQYGYWGQGTQVTVSS
- polyreactivity (PSR sort gate): low polyreactivity

Sequence: QVQLVESGGGLVQAGGSLRLSCAASGSTFRTYAMGWYRQAPGKEREFVAAIRYNGGSTYYADSVKGRFTISLDNAKNTVYLQMNSLKPEDTAVYYCAAATYYYRVSWLWYYLDDYWGQGTQVTVSS
- polyreactivity (PSR sort gate): high polyreactivity

Sequence: QVQLVESGGGLVQAGGSLRLSCSASGRTFHYYAMGWYRQAPGKERELVAVIRYSGGRTYYADSVKGRFTISRDNAKNTVYLQMNSLKPEDTAVYYCNKGRWRTDQPVYLIAFDYWGQGTQVTVTS
- polyreactivity (PSR sort gate): low polyreactivity

Sequence: QVQLVESGGGLVQAGGSLRLSCAASGFIFYNYAMGWYRQAPGKERELVAAISASGGRTYYADSVKGRFTISRDNAKNTVYLQMNRLKPEETAVYYCNARVNYKGYDYWGQGTQVTVSS
- polyreactivity (PSR sort gate): high polyreactivity

Sequence: QVHLVESGGGLVQAGGSLRLSFAASGLIFSAYAMAWYRQAPGKERELVAAISSSGGRTYYADSVKGRFTISRDNAKNTVYLQMNSLKPEDTAVYYGNAASKNSGRYAYQNYDYWGQGTQVTVSS
- polyreactivity (PSR sort gate): high polyreactivity

Sequence: QVQLVESGGGLVQAGGSLRLSCAASGLTFLDYDMGWYRQAPGKERELVADIDWSGGNTYYADSVKGRFTISRDNAKNTVYLQMNSLKPEDTAVYYCNTVTEAVTRRYDYWGQGTQVTVSS
- polyreactivity (PSR sort gate): low polyreactivity

Sequence: QVQLVESGGGLVQAGGSLRLSCAASGRTLWLYAMGWYRQAPGKERELVAAITRSAGTTYYADSVKGRFTISRDNAKNTVYLQMNSLKPEDTAVYYCATRYPQSSLSTSSRSSSGYWGQGTQVTVSS
- polyreactivity (PSR sort gate): high polyreactivity

Sequence: QVQLVESGGGLVQAGGSLRLSCAASGRTFGTNAMGWYRHAPGKERELVAANSRRGGSTYYAESVKGRFTISRDNEKNTVYLQMNSLKPEDTAVYYCAKTIGLKHEDEYWGQGTQVTVSS
- polyreactivity (PSR sort gate): low polyreactivity

Sequence: QVQLVESGGGLVQAGGSLRLSCAASGSTFDDNAMGWYRQAPGKERELVAAITYRGTRTYYADSVKGRFTISRDNAKNTVYLQMNSLKPEDTAVYYCAADSESVGYEYWGQGTQVTVSS
- polyreactivity (PSR sort gate): high polyreactivity

Sequence: QVQLVESGGGLVQAGGSLRLSCAASGRIFFYNAMGWYRQAPGKERELVATIRGGGSTNYADSVKGRFTISRDNAKNTVYLQMNSLKPEDTAVYYCAARRGSYSVTEYWGQGTQVTVSS
- polyreactivity (PSR sort gate): high polyreactivity

Sequence: QVQLVESGGGLVQAGGSLRLSCAASGFTFSKYAMGWYRQAPGTERELVASIDDGGSTNYADSVKGRFTISRDNAKTTVYLQMNRLNPEDTAVYYCNASYPTGYWYYVIVQYDYWGQGTQVTVSS
- polyreactivity (PSR sort gate): low polyreactivity

Sequence: QVQLVESGGGLVQAGGSLRLSCAASGRTFRYNALGWYRQAPGTERELVAAISRGTITNYAASVKGRFTISRDNAKNPVYFQLTSLKPEDTAVYYCNAGWGVVIRRYPTYHYWGQGTQVTVSS
- polyreactivity (PSR sort gate): high polyreactivity

Sequence: QVQLVESGGGLVQAGGSLRLSCAASGYIFLGNAMGWYRQAPGKERELVAAINSSGGSTYYADSVKGRFTISRDNAKNTVYLQMNSLKPEDTAVYYCATSDRDGIYVVPHMDYWGQGTQVTVSS
- polyreactivity (PSR sort gate): low polyreactivity

Sequence: QVQLVESGGGLVQAGGFLRLSCASSGSTFIYYAMGWYREAPGKERELVAAISWSGGRTYYADAVKGRFTISRDNAKNTVYLQMTSLKPEDTAVDYCAAESYYSDGYPGVDYWGQATQVTVSS
- polyreactivity (PSR sort gate): high polyreactivity

Sequence: QVQLVESGVGLVQAGGSLRLICAASGRNFRTNAMGWYRQAPGKERELVAAISTGGGITKYADSVKGRFTISRDNSKNTVYLQMNSLKPEDTAVYYCAADAVNTLDYWGQGTQVTVSS
- polyreactivity (PSR sort gate): low polyreactivity

Sequence: QVQLVESVGGLVQAGGSLRLSCAASGLIFFGNTMGWYRQAPGKDRELVAAISKRGTTYYADSVKGRFKISRDNAKNTVYLQMNSLKPEDTAVYYCAAGGTFFHRLDYYYRSDYWGQGTQVTVSS
- polyreactivity (PSR sort gate): high polyreactivity

Sequence: QVQLVESGGGLVQAGGSLRLSCAASGSISGRYAMGWYRQAPGKERELVAAISWIGGSTYYADSVKGRFTISRDNAKNTVYLQMNSLKPEDTAVYYCNVTIDTRTHPLLVVFYGYDYWGQGTQVTVSS
- polyreactivity (PSR sort gate): low polyreactivity

Sequence: QVHLVESGGGLVQAGGSLRLSCAASGFTFPIYAIGWYRQAPGKERELVAAITTRGGSTYYADSVKGRFTISRDNAKNTVYLQMNSLKPEDTAVYYCNNRGRRTDYDYWGQGTQVTVSS
- polyreactivity (PSR sort gate): high polyreactivity

Sequence: QVQLVESGGGLVQAGGSLRLSCAASGITLYGYVMGWYRQAPGKERELVAAISASGGRTHYADSVKGRFTISRDNAKNTVYLQMNSLKPEDTAVYYCARAGSRSPGGYDYWGQGTQVTVSS
- polyreactivity (PSR sort gate): high polyreactivity

Sequence: QVQLVESGGGLVQAGGSLRLSCAASGSIFLPYAMGWNRQAPGKERELVAAITWSGGRTYYADSVKGRFTISRDNAKNTVYLQMNSLKPEDTAVYYCAADDSEGFDYWGQGTQVTVSS
- polyreactivity (PSR sort gate): high polyreactivity

Sequence: QVQLVESGGGLVQAGGSLRLSCAASGSIFARYTMGWYRQAPGKERELVASITWRTGSTYYADSVKGRFTISRDNAKNTVYLQMNSLKPEDTAVYYCNKAYTITQYGWIPLGYWGQGTQVTVSS
- polyreactivity (PSR sort gate): high polyreactivity

Sequence: QVQLVESGGGLVQAGGSLRLSCAASGSIFTYYAMGWYRQAPGKEREFVAAISRRGGSTYYADSVKGRFTISRDNAKNTVYLQMNSLKPEDTAVYYCAADRWTRTLVKVIGRYYYWGQGTQVTVSS
- polyreactivity (PSR sort gate): high polyreactivity

Sequence: QVQLVESAGGLVQAGGSLRLSCAASGFTFGDNAMGWYRQAPGKERELVAAITSSGSTNYADSVKGRFTISRDNAKNTVYLQMNSLKPEDTAVYYCNAEDSVDAPVYKDLGSEYDSWGQGTQVTVSS
- polyreactivity (PSR sort gate): low polyreactivity

Sequence: QVQLVETGGGLVQAGRSLRLSCAASGSNFRSYARGWYRQAPGKERELVAAITSSSGSTDYADSVKGRFTSSRDNAKNTVYLQMNSLKPEDTAVYYCNAPYWKSRFRAYYHWGQGTQVTVSS
- polyreactivity (PSR sort gate): high polyreactivity

Sequence: QVQLVESCGGLVQAGGSLRLSCAASGRTFVTYAMGWYRQAPGKERELVAAISKRGSRTYYAYSVKGRFTISRDNAKNTVYLQMNSLKPEDTAVYYCNADPYRTSYDYWGQGTQVTVSS
- polyreactivity (PSR sort gate): high polyreactivity

Sequence: QVQLVDSGGGLVQAGGSLRLSCAASGFIFFQNAMGWYRQSPGKERELVAAISRRGGSTYYADSVKGRFTISRDNAKNTVYLQRNSLTPDDTAGYYCAARSRCDLASRYTGDYWGQGTQLTVSS
- polyreactivity (PSR sort gate): low polyreactivity

Sequence: QVQLVESGGGLVQAGGSLRLSCAASGLIFSWYAMGWYRQAPGKEREFVAGISKGGDSTYYADSVKGRFTISRDNAKNTVYLQMNSLKPEDTAVYYCAADWWQGTSHYWGGAYNYWGQGTQVTVSS
- polyreactivity (PSR sort gate): low polyreactivity

Sequence: QVQLVESGGGLVQAGGRLRLSCAASGSIFVIYGMGWYRQAPGKERELVAAISDRGGSTYYADSVKGRFTISRDNAKNTVYLQMNSLKPEDTAVYYCAADRQYRYATRYDYWGQGTQVTVSS
- polyreactivity (PSR sort gate): low polyreactivity

Sequence: QDQLVESGGGLVQAGGSLRLSCAASGSIFSTYAMGWYRQAPGKERELVAAIDGSGGSTYADSVKGRFTISRDNAKNTVYLQMNSLKPEDTAVYYCAVDSFLVYSAVRPYDYWGQGTQVTVSS
- polyreactivity (PSR sort gate): low polyreactivity

Sequence: QVQLAESGGGLVQAGGSLRLSCGASGSTFVAYALGWYRQAPGKEREFVAAISRSGGSTHYADSVKGRFTISRDNAKNTVYLQMNRLNPEDTAVYYCAARVYGYGGRTYEYWGQGTQVTVSS
- polyreactivity (PSR sort gate): high polyreactivity

Sequence: QVQLVESGGGLVQAGGSLRLSCAASGRTFDRYTMGWYRRAPGKERELVATIRSTGSTYYADSVKGRFTISRDNAKNTVYLQMNSLKTEDTAVYYCNRKYRSSLPYGDGYWGQGTQVTVSS
- polyreactivity (PSR sort gate): low polyreactivity

Sequence: QVQLVESGGGLVQAGGSLRLSCAASGFTFGYYAMGWYRQAPGKERELVARISRRGGTTYYADSVKGRFTISRDNAKTTVYLQMNSLKPEDTAVYYCATDGVWNRINRYDYWGQGTQVTVSS
- polyreactivity (PSR sort gate): high polyreactivity

Sequence: QVQLVESGGGLVQAGGSLRLTCAASGSIFWWYGVGWYRQAPGKERELVADITSGGGTYYADSVKGRFTISRDNAKNTVYLQMNSLKPEDTAVYYCAADDRAYRFDYYFDYWGQGTQVTVSS
- polyreactivity (PSR sort gate): low polyreactivity
